The record followed here is paper PMC9025429.

The experiment deals with N36 peptide (HIV-1). Nature of the experiment: ELISA; competition ELISA of 6-HB formation: plate coated with the 6-HB-specific mAb NC-1; inhibitor at 0.312-20 uM with N36 (final 1 uM) and biotin-C34 (final 2 uM) in PBS, 37 °C, 1 h; streptavidin-HRP detection.
Chain of N36 peptide (HIV-1) (P03375 546-581 limits assumed): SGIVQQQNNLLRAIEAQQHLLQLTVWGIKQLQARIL

Substance C10-T1144 (peptide) showed an IC50 of 2.42 µM. This lies in the single-digit micromolar range.

Usually IC50 stands for the concentration needed to halve the response being measured. Low readings indicate greater potency, high ones weaker potency.
